Experimental data as given in the supplement of paper PMC10065799, “High-throughput profiling of sequence recognition by tyrosine kinases and SH2 domains using bacterial peptide display” (eLife, 2023).

How the values were obtained:
FGFR3 = FGFR3 (UniProt P22607); assay: phosphorylation enrichment, bacterial display (enrichment ratio); higher = better substrate or ligand; peptides without Tyr show the background
Fyn = Fyn (UniProt P06241); assay: as above
c-Abl (mouse) = assay: as above
AncSZ = assay: as above
Jak2 = Jak2 (UniProt O60674); assay: as above
MERTK = MERTK (UniProt Q12866); assay: as above
EPHB1 = EPHB1 (UniProt P54762); assay: as above
c-Src = assay: as above
Fer (mouse) = assay: as above
FGFR1 = FGFR1 (UniProt P11362); assay: as above
Fes = Fes (UniProt P07332); assay: as above
EPHB2 = EPHB2 (UniProt P29323); assay: as above
Hck = Hck (UniProt P08631); assay: as above
Grb2 SH2 = Grb2 SH2 (UniProt P62993); assay: SH2 binding enrichment of the phosphorylated peptide, bacterial display (enrichment ratio); higher = better substrate or ligand; peptides without Tyr show the background
SHP2-C SH2 = assay: as above
c-Src SH2 = assay: as above
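Throughout, for SH2 binding enrichment of the phosphorylated peptide, bacterial display: peptide library displayed on the E. coli surface as eCPX fusions, selected cells deep-sequenced, score is each peptide's frequency after selection divided by its frequency in the input.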
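Throughout, for phosphorylation enrichment, bacterial display: 11-residue human phosphosite peptides and single-mutation variants displayed on the E. coli surface, counted by deep sequencing, each peptide's frequency after selection divided by its frequency in the unselected input library; frequency after pTyr selection over input frequency; kinase dosed for 20-30% of maximal phosphorylation in three min.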

FGFR1, sequence (P11362 whole entry, looked up): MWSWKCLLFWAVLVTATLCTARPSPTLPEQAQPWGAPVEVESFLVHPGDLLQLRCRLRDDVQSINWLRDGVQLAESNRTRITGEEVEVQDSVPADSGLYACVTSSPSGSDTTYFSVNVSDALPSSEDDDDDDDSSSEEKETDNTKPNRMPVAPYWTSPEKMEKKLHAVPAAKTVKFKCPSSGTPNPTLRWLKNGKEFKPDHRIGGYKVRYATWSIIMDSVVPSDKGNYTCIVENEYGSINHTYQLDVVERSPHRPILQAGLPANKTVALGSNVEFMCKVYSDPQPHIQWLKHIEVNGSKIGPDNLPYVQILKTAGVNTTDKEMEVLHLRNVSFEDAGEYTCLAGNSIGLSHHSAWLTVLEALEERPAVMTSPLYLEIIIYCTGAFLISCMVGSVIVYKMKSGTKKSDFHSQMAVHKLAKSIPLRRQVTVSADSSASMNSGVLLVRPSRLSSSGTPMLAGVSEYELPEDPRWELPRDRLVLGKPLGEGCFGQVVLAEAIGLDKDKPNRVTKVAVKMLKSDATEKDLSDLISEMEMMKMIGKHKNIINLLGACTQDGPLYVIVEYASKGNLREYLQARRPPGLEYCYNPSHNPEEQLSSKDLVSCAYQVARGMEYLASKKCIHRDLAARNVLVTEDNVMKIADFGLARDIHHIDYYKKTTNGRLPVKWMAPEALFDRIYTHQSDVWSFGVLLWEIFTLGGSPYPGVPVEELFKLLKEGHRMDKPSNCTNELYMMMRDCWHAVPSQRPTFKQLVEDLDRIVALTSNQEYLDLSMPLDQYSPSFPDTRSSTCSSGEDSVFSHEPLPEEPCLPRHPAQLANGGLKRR
EPHB2, sequence (P29323 whole entry, looked up): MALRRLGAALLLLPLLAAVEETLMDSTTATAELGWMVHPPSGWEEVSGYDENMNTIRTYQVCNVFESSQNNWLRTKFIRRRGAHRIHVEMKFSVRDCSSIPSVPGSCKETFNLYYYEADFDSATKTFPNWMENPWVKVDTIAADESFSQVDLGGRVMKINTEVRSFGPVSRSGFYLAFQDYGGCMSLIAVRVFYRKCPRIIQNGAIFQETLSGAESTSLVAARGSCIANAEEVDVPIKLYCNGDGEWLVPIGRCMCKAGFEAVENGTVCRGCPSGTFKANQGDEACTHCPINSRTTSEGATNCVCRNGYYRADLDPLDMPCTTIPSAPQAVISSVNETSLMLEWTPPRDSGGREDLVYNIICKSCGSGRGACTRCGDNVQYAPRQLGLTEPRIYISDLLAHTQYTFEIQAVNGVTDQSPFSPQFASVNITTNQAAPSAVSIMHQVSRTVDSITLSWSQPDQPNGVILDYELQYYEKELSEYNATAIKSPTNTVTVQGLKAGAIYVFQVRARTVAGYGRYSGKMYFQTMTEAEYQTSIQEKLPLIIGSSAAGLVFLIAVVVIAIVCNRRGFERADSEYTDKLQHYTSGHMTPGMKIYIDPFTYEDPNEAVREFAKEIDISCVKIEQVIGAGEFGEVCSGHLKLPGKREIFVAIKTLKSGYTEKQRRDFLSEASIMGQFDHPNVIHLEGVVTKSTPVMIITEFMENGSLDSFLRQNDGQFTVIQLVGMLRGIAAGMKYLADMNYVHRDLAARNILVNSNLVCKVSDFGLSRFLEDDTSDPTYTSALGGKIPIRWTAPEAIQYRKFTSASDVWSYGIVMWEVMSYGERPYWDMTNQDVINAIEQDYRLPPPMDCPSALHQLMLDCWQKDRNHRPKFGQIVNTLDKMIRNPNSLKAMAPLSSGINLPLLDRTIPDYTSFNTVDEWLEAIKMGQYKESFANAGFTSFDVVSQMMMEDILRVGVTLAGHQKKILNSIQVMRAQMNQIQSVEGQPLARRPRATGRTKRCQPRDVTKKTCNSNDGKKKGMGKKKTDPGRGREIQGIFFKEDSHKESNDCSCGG
Grb2 SH2, sequence (P62993 whole entry, looked up): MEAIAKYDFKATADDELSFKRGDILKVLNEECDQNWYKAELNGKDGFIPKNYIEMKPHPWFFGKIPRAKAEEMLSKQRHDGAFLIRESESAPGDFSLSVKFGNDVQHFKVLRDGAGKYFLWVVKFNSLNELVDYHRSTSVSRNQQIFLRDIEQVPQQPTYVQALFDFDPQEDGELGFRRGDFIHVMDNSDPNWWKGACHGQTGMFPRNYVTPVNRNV
Hck, sequence (P08631 whole entry, looked up): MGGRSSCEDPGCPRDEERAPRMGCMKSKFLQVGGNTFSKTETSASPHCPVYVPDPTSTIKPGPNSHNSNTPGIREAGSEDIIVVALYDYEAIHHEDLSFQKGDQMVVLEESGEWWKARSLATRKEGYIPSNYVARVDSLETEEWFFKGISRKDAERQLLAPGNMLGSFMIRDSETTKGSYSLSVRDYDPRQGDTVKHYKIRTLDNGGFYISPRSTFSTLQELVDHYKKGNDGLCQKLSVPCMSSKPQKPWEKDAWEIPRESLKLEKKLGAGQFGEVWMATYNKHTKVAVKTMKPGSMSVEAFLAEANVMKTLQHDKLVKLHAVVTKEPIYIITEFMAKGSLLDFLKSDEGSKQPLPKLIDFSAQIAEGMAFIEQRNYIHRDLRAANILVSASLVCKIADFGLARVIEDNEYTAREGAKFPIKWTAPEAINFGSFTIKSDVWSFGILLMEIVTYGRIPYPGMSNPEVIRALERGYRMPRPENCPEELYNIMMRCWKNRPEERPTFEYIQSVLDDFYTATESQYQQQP
Jak2, sequence (O60674 whole entry, looked up): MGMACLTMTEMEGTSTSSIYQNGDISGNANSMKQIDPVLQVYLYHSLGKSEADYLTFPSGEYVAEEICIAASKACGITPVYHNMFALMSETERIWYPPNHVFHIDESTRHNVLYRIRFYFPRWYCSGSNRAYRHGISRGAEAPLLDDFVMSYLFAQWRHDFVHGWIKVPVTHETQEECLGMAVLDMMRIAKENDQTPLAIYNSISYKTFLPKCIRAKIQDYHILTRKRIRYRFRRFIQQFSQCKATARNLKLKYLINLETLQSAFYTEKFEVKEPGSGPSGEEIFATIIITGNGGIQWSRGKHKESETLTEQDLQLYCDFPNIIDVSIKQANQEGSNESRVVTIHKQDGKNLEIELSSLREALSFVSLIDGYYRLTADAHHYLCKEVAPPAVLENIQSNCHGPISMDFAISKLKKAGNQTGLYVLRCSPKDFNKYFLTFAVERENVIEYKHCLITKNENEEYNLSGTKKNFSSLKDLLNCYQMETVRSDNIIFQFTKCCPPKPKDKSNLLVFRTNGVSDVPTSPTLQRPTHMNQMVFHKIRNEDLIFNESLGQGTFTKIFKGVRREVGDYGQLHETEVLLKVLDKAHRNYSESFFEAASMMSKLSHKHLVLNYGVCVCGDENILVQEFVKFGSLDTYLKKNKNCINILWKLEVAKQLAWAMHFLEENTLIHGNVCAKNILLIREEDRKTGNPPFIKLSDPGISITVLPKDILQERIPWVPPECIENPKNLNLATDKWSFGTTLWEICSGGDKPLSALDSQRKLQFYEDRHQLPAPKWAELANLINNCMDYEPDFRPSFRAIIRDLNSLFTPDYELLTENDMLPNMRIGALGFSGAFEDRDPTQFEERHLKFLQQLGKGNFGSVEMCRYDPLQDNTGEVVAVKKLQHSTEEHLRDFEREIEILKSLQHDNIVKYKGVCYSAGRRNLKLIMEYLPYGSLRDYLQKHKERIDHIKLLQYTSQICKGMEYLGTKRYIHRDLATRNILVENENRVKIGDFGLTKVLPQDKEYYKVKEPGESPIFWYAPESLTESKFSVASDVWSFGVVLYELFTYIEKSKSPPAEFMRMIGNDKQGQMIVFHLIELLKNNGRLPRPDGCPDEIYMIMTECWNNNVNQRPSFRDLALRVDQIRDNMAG
FGFR3, sequence (P22607 whole entry, looked up): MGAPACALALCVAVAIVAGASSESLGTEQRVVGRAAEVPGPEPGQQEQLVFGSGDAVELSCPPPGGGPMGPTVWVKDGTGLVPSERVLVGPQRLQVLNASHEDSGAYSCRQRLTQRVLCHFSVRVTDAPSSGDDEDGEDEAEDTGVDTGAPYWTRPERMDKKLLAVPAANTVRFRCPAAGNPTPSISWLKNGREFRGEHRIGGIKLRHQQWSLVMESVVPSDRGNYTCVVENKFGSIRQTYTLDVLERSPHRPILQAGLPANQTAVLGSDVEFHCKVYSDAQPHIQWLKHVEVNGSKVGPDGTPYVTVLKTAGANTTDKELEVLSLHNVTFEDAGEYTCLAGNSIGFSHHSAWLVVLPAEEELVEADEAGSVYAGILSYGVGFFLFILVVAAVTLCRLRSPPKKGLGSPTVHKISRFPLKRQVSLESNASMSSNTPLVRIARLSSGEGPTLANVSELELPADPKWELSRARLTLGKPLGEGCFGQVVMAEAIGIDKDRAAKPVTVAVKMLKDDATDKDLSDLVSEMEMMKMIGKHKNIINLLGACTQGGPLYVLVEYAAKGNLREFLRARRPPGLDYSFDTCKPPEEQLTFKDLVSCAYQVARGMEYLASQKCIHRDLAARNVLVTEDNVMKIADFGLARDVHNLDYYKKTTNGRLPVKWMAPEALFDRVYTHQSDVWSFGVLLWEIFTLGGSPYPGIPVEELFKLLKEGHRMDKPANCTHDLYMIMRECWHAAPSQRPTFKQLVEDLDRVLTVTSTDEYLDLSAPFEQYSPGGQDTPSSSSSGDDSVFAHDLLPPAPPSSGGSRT

Sequence	phosphorylation enrichment (FGFR3)	phosphorylation enrichment (Fyn)	phosphorylation enrichment (c-Abl (mouse))	phosphorylation enrichment (AncSZ)	phosphorylation enrichment (Jak2)	phosphorylation enrichment (MERTK)	phosphorylation enrichment (EPHB1)	phosphorylation enrichment (c-Src)	phosphorylation enrichment (Fer (mouse))	phosphorylation enrichment (FGFR1)	phosphorylation enrichment (Fes)	phosphorylation enrichment (EPHB2)	phosphorylation enrichment (Hck)	SH2 binding enrichment (Grb2 SH2)	SH2 binding enrichment (SHP2-C SH2)	SH2 binding enrichment (c-Src SH2)
FFHKFYNKSED [RYR1_Y4864_R4861H]	0.948	0.558	0.72	1	1.09	0.761	0.727	0.588	0.497	0.665	1.43	0.719	0.616	0.741	0.746	0.521
FFPANYVAPMT [GRAP2_Y324_L319F]	0.646	0.471	1.36	0.924	0.865	0.768	4.84	0.449	0.41	0.65	0.826	2.17	0.469	0.814	0.883	0.6
FFTEEYVRDHP [DOCK2_Y1555]	0.766	0.44	0.657	0.989	1.19	0.381	0.486	0.457	0.452	0.481	0.915	0.461	0.485	0.944	0.916	0.553
FGAHKYHPLPV [OAT_Y55_N54K_YF]	0.544	0.309	0.443	0.497	0.424	0.376	0.375	0.377	0.441	0.397	0.677	0.468	0.474	1.46	1.26	1.31
FGDTSYIPFRD [CDC14C_Y132_P131S]	0.496	0.443	0.546	0.659	0.676	0.452	0.424	0.518	0.391	0.517	0.672	0.533	0.443	0.8	0.599	0.536
FGMSSYITRED [FNDC3B_Y180_T179S_YF]	0.693	0.59	0.579	0.84	0.559	0.527	0.594	0.442	0.544	0.556	0.891	0.653	0.536	0.715	0.937	0.501
FGSGNYNDFGN [HNRNPA2B1_Y300_YF]	0.505	0.347	0.876	0.941	0.726	0.363	1.97	0.419	0.362	0.378	0.995	0.544	0.4	0.975	0.408	0.683
FGSRLYKYAFK [FANCD2_Y458_L456R]	0.407	0.341	0.5	0.593	0.488	0.342	0.363	0.318	0.473	0.344	0.715	0.429	0.399	1.09	0.628	0.77
FGSSSYRGAGG [RPA2_Y14_G15R_YF]	0.584	0.494	0.998	0.64	0.692	0.568	0.431	0.659	0.409	0.551	0.876	0.551	0.523	1.01	0.548	0.353
FGSVDYWEKFF [EEF1AKNMT_Y16]	1.05	0.499	0.841	1.16	1.1	0.457	0.633	0.523	0.506	0.909	1.23	0.587	0.55	0.749	0.759	0.493
FGVVGYLAIVF [RNF175_Y155_M159V]	1.14	0.452	1.1	1.4	1.65	0.498	0.811	0.457	0.649	0.559	1.94	0.691	0.557	1.06	1.12	0.662
FKDFFYCWNTS [AICDA_Y146_F151S_YF]	0.939	0.458	1.08	1.32	1.42	0.836	0.942	0.589	0.768	0.496	1.5	0.61	0.589	0.815	0.689	0.59
FKDVTYLTEEK [UBE3A_Y127]	0.683	0.747	0.726	1.15	0.959	0.51	0.618	0.511	0.423	0.524	1.09	0.691	0.53	1.11	0.777	0.429
FKGIVYAVSSD [DCX_Y70]	0.505	0.484	0.629	0.86	0.802	0.371	0.416	0.49	0.428	0.424	0.916	0.49	0.391	0.809	0.825	0.535
FKTPIYPFLLP [PLD2_Y578_T577I_YF]	0.782	0.456	0.747	1.11	0.91	1.57	0.564	0.559	0.497	1.06	0.883	0.563	0.523	1.14	0.892	0.825
FLAAIYPTVGQ [NF1_Y2508_T2507I_YF]	0.583	0.39	0.389	0.724	0.798	0.406	0.58	0.442	0.382	0.473	0.943	0.358	0.477	1.01	0.641	0.759
FLEKFYKFGCR [NNMT_Y25_S29C_YF]	0.696	0.512	0.884	0.934	0.961	0.432	0.522	0.446	0.546	0.631	1.12	0.506	0.443	1.11	1.22	0.781

Sequence	phosphorylation enrichment (FGFR3)	phosphorylation enrichment (Fyn)	phosphorylation enrichment (c-Abl (mouse))	phosphorylation enrichment (AncSZ)	phosphorylation enrichment (Jak2)	phosphorylation enrichment (MERTK)	phosphorylation enrichment (EPHB1)	phosphorylation enrichment (c-Src)	phosphorylation enrichment (Fer (mouse))	phosphorylation enrichment (FGFR1)	phosphorylation enrichment (Fes)	phosphorylation enrichment (EPHB2)	phosphorylation enrichment (Hck)	SH2 binding enrichment (Grb2 SH2)	SH2 binding enrichment (SHP2-C SH2)	SH2 binding enrichment (c-Src SH2)
FLELNYKEDEF [MME_Y502_YF]	0.633	0.461	0.589	1.34	0.848	0.344	0.612	0.349	0.524	0.565	1.05	0.569	0.552	0.856	0.773	0.585
FLQEIHNSNNQ [FGG_Y140_Y140H_YF]	0.716	0.511	0.808	0.823	0.63	0.443	0.561	0.391	0.607	0.606	1.01	0.436	0.538	0.71	0.867	0.416
FMIISYVLIIR [OR1D2_Y218_V214M]	0.559	0.426	0.625	0.936	0.383	0.446	0.225	0.437	0.491	0.651	0.631	0.483	0.553	2.38	1.52	1.38
FMMMRYSQNVR [SDAD1_Y656]	0.782	0.424	0.701	1.11	0.939	0.493	0.614	0.365	0.58	0.432	1.04	0.626	0.475	1.52	1.43	1.03
FNDSTYNQQLI [ZPLD1_Y198_YF]	0.555	0.429	0.694	0.883	0.863	0.431	0.474	0.617	0.463	0.651	0.878	0.483	0.482	0.852	0.498	0.437
FNNFGYGNDGF [HNRNPH3_Y161_YF]	0.557	0.505	0.606	0.828	0.937	0.491	0.403	0.507	0.499	0.546	0.939	0.518	0.447	0.936	0.704	0.554
FNNFGYGSDGF [HNRNPH3_Y161_N163S_YF]	0.593	0.442	0.727	0.856	0.829	0.455	0.527	0.453	0.455	0.499	0.962	0.592	0.57	0.823	0.685	0.386
FNVLQYVVPEV [EIF3A_Y382]	1.85	0.629	5.16	1.88	1.55	1.99	0.933	0.58	0.701	2.06	1.32	1.02	0.635	0.835	0.963	0.599
FPPISYLHAIS [MVD_Y276_N278H]	0.612	0.602	0.829	0.984	0.793	0.544	0.434	0.608	0.545	0.602	1	0.579	0.565	0.862	0.657	0.657
FPRTGYSVPFG [TGM1_Y370_L366P_YF]	0.513	0.475	1.11	0.686	0.688	0.485	0.493	0.511	0.421	0.379	0.709	0.504	0.419	0.987	1.4	3.87
FQGGTYSKAST [FGG_Y380_YF]	0.413	0.372	0.446	0.448	0.478	0.46	0.377	0.41	0.325	0.495	0.544	0.452	0.308	0.787	1.14	0.657
FRNKPYISWPS [CDC42BPB_Y1638_S1633Y_YF]	0.427	0.345	0.36	0.457	0.424	0.417	0.255	0.445	0.366	0.408	0.552	0.33	0.414	1.99	1.77	1.6
FSIDFYRVGGH [NTRK2_Y707_T704I_YF]	0.719	0.465	0.837	1.19	1.24	0.429	0.593	0.436	0.466	0.531	1.37	0.573	0.456	0.926	0.814	0.548
FSKDNYKRVTG [PANK2_Y405_YF]	0.393	0.401	0.416	0.397	0.409	0.383	0.409	0.369	0.394	0.407	0.452	0.412	0.396	0.719	0.502	0.406
FSLIHYARIVD [MYH7_Y582_G584R]	0.819	0.528	0.762	1.13	1.01	0.418	0.702	0.426	0.588	0.576	1.29	0.63	0.506	1.12	26.8	4.46
FSNKLHFQLEQ [PDPR_Y109_Y109H_YF]	0.509	0.471	0.709	0.976	0.889	0.51	0.473	0.491	0.43	0.482	1.18	0.509	0.398	0.917	0.938	0.482
